Assays:
[1] = molecular target: mesothelin as expressed on the plasma membrane of human cells (HeLa, OVCAR-3, SK-OV-3, A1847) (human) (UniProt Q13421); test: flow cytometry on HeLa cells, chemically biotinylated antibody, PE-streptavidin, Lineweaver-Burk plot
[2] = molecular target: mesothelin as expressed on the plasma membrane of human cells (HeLa, OVCAR-3, SK-OV-3, A1847) (human) (UniProt Q13421); test: flow cytometry on Hela cells, chemically biotinylated mAb K1, detection with PE streptavidin [continued) C]
[3] = molecular target: T1, mesothelin as expressed on the plasma membrane of human cells (HeLa, OVCAR-3, SK-OV-3, A1847) (human, UniProt Q13421 296-598); test: flow cytometry on HeLa cells, chemically biotinylated nanobody, PE-streptavidin, Lineweaver-Burk plot
T1 construct: whole, on cells; also called cellularly expressed mesothelin; cell-surface mesothelin
Protocol: (§1) FIG. 4: Affinity determination of nanobodies for mesothelin as expressed on the plasma membrane of cells. Hela cells were incubated with serial dilutions of in vitro biotinylated anti-mesothelin Nb-A1 (A), Nb-C6 (B) or commercial mAb K1 antibody (•; (C)). Bound antibodies were detected by flow cytometry using PE-conjugated streptavidin. Insets are Lineweaver-Burk plots used to determine the dissociation constant. Error bars represent the standard deviation of experiments performed in triplicate.
(§2) The affinity of Nb-A1 and Nb-C6 for cellularly expressed mesothelin was determined by flow cytometry using HeLa cells for the antigen as described previously; Even-Desrumeaux et al., Mol Biosyst 8(2012), 2385-2394. Briefly, binding to HeLa cells was detected using flow cytometry after incubation with various concentrations of biotinylated nanobodies followed by PE-labeled streptavidin. Apparent KD values were determined by the equation KD=a*Fₘₐₓ in which (a) is the regression line and Fₘₐₓ is the maximum of fluorescence.

[4] = molecular target: T1, mesothelin as expressed on the plasma …; test: flow cytometry on Hela cells, chemically biotinylated Nb-A1, detection with PE streptavidin
Protocol: as §1, §2

T1 sequence (Q13421 other isoform, or with tags, fused parts or gaps limits assumed): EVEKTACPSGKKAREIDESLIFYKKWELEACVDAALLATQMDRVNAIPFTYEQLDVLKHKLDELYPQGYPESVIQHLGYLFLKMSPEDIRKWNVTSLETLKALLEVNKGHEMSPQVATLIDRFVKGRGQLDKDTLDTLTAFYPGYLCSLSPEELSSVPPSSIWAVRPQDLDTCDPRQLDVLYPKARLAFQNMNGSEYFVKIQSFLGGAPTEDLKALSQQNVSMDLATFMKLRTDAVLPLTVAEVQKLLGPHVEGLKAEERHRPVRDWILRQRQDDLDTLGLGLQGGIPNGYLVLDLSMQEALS
Sequence of mesothelin as expressed on the plasma membrane of human cells (HeLa, OVCAR-3, SK-OV-3, A1847) (human) (Q13421 other isoform, or with tags, fused parts or gaps limits assumed): as above

Row | Kd [1] [nM] | EC50 (read off the curve) [2] [nM] | Kd [3] [nM] | EC50 (read off the curve) [4] [nM] | Molecule
1 | 2 | 2 |  |  | anti-mesothelin mouse monoclonal antibody K1 (Santa Cruz Biotechnology)
2 |  |  | ~15 | ~20 | Nb-A1 (nanobody A1, comprising amino acid sequence SEQ ID NO:1) (VHH, Llama VHH made in the periplasm of E. coli with a C-terminal hexahistidine tag; For the KD measurement it was chemically biotinylated (NHS-PEO4-biotin); not shown: C-terminal hexahistidine tag, named in words only) VHH: QVQLVQSGGGLVHPGGSLRLSCAASGIDLSLYRMRWYRQAPGKERDLVALITDDGTSYYEDSVKGRFTITRDNPSNKVFLQMNSLKPEDTAVYYCNAETPLSPVNYWGQGTQVTVS

Source: patent US20180002439A1 (INSTITUT NATIONAL DE LA SANTE ET DE LA RECHERCHE MEDICALE …, published 2018)
